How the values were obtained:
[1] = biological target: 1059-SOSIP (soluble SOSIP Env trimer of the transmitted/founder HIV-1 strain 1059) (HIV-1 (strain 1059, transmitted/founder)); test: cryo-EM structure; unliganded SOSIP trimers purified by GNL/SEC; 2.16 mg/mL 1059-SOSIP, 3.64 mg/mL BG505-SOSIP; 0.085 mM DDM before vitrification; refined with C1 symmetry
[2] = biological target: BG505-SOSIP (soluble SOSIP Env trimer of HIV-1 strain BG505) (HIV-1 (strain BG505)) (UniProt Q2N0S6); test: as above

Row | Substance | stoichiometry N [1] | stoichiometry N [2]
1 | 1059-SOSIP (soluble SOSIP Env trimer of the transmitted/founder HIV-1 strain 1059) (complex) | 3 | –
2 | BG505-SOSIP (soluble SOSIP Env trimer of HIV-1 strain BG505) (from UniProt Q2N0S6 1-860; Q2N0S6 1-860) (complex) | – | 3

Source: paper PMC11347675
